# Experimental data taken from patent publication US11565003B2, “Mechanical opening of lipid bilayers by molecular nanomachines” (William Marsh Rice University, priority 2016, dated 2023).
# Starred links: 1 amine or outer side, 2 acyl side, 3 side chain; linkers in the order of their positions; H or OH if unused. Positions of bridges follow the written chain, without caps; N, C: chain ends. Residues, ends and D or L forms follow the SMILES beside them. Chains are numbered I, II in the order given. X2 = C[C@@H]1Cc2ccc3ccccc3c2C1=C1c2cc(C#CCCn3cc(C(=O)[*:1])nn3)ccc2Sc2ccc(C#CCCn3cc(C(=O)[*:2])nn3)cc21
# System: PC-3 cells
# Test: Two-photon near-infra red activation, PI dye entry, PC-3
# Assay type: cell-based, human
# Conditions: PC-3, 1 μM, PI 200 nM
# Procedure: Two-photon microscopy studies of NIH 3T3 cells were executed on a Nikon E600 upright confocal microscope coupled to a tuneable (710-950 nm Coherent MaiTai) multiphoton source operating at (20%) 240 mW power using a 166 lps scan speed and 128×128 pixel frame resolution for MP-illumination. Images (512×512 pixel, 166 lps) were recorded using a 543 nm (1 mW HeNe) laser combined with a 560 nm long-pass filter to record PI (200 nM) fluorescence and follow the onset of induced necrosis.
# Two photon live cell microscopy studies were also executed on a Nikon E600 upright confocal microscope coupled to a tuneable (710-950 nm Coherent MaiTai) multiphoton source operating at (19.8%) 240 mW power at 720 nm using 166 lines/sec scan speed and 128×128 pixel frame resolution for MP-illumination. An oil immersion Nikon IR objective (×60/1.4 NA) was used. Images (512×512 pixel, 166 l/s) were recorded using a 543 nm (1 mW HeNe) laser combined with a 570 nm long-pass filter to record PI dyes (200 nM). Fluorescence was measured as 2 frame averaged images in order to follow the onset of induced necrosis. Necrosis times have been assigned to detectable PI signals in the nucleolus.
compound,measurement,value
CC(C)[C@H](NC(=O)[C@H](CCCNC(=N)N)NC(=O)[C@@H](NC(=O)[C@H](CC(N)=O)NC(=O)[C@H](CO)NC(=O)c1cn(CCC#Cc2ccc3c(c2)C(=C2c4c(ccc5ccccc45)C[C@H]2C)c2cc(C#CCCn4cc(C(=O)N[C@@H](CO)C(=O)N[C@@H](CC(N)=O)C(=O)N[C@H](C(=O)N[C@@H](CCCNC(=N)N)C(=O)N[C@H](C(=O)N[C@@H](C)C(=O)N5CCC[C@H]5C(=O)O)C(C)C)[C@@H](C)O)nn4)ccc2S3)nn1)[C@@H](C)O)C(=O)N[C@@H](C)C(=O)N1CCC[C@H]1C(=O)O [Compound 9] (I: SNTRVAP-OH / II: SNTRVAP-OH; linker I:N-II:N via X2),PI dye entry upon two-photon near-infra red illumination (in words),resulting in Propidium Iodide (PI) dyes entering
